From patent US7265202 (University of California, dated 2007)
Blank lines part the entries; values can stand above or below the binder they belong to.

Key:
[1] = target: STAT3 in cytokine-treated human cells (CNTF, OM or IL6) (human, UniProt P40763 2-770, limits assumed, tyrosine phosphorylated after cytokine treatment (site not given)); experiment: co-immunoprecipitation with anti-PIAS1n from HepG2 cells untreated or treated with IL6 or IFN-γ, anti-STAT3 blot
[2] = target: STAT2 in IFN-treated human Daudi B cells (human, UniProt P52630 1-851); experiment: co-immunoprecipitation with anti-PIAS1n from IFN-treated Daudi B cells, immunoblot with anti-STAT1 and anti-STAT2
Procedure: Daudi cells were treated with […] for the times indicated. Whole cell extracts were prepared and one half of these extracts were used for immunoprecipitation with anti-PIAS1n (left panel). Immunoprecipitation was carried out as described in (A) and the filter was probed with anti-STAT1 and anti-STAT2. The same filter was washed and reprobed with anti-PIAS1n (lower panel). The other half of protein extracts were subjected to immunoprecipitation with anti-STAT1 (right panel). The filter was probed with a mixture of anti-STAT1 and anti-STAT2 antibodies. p-STAT1: phosphorylated STAT1.
Human Daudi B cells were untreated or treated with IFN-α for various time periods. Protein extracts were prepared and subjected to immunoprecipitation with anti-PIAS1n followed by immunoblot with both anti-STAT1 and STAT2 antibodies. While STAT1 was associated with PIAS1 in IFN-treated cells, STAT2 was absent in PIAS1 immunoprecipitates (FIG. 8B).

[3] = target: T1, STAT1 in IL6-treated murine M1 cells (murine, UniProt P42225 2-749, the filing says IL6 stimulation can induce tyrosine phosphorylation of STAT1); experiment: co-immunoprecipitation with anti-PIAS3c from M1 cells, blot reprobed with antibody to STAT1
T1 sequence (looked up): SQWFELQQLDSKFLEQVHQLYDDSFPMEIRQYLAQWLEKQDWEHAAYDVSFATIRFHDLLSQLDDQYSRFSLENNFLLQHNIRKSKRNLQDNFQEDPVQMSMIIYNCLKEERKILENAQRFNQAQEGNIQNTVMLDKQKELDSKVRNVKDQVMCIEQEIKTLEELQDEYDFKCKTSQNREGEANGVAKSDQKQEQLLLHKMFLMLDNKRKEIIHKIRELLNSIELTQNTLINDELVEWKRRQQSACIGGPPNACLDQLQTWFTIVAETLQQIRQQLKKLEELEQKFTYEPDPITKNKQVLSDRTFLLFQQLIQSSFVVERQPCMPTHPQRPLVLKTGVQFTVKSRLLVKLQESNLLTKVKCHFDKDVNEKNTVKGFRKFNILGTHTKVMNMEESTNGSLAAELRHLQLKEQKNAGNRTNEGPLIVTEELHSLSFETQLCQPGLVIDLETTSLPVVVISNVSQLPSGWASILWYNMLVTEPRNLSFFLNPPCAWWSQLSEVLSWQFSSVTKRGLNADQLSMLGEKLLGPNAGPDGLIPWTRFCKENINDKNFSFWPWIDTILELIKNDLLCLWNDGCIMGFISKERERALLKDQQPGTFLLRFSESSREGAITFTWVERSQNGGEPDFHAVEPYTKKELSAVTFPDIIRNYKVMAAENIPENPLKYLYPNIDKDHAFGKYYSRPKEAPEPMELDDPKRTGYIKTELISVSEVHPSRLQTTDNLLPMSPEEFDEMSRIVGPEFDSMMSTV
Procedure: To identify which STAT protein interacts with PIAS3, protein extracts were prepared from murine myeloblast M1 cells, which were untreated or treated with IL6. Proteins immunoprecipitated with anti-PIAS3c were analyzed by protein immunoblot with anti-STAT3. STAT3 was present in a PIAS3 immunoprecipitate from IL6 treated M1 cells but not in an immunoprecipitate from untreated M1 cells (FIG. 2A). […] IL6 stimulation can induce tyrosine phosphorylation of STAT1 as well as STAT3 (Sadowski et al. (1993)). The protein blot was therefore washed and reprobed with antibody to STAT1. STAT1 was not present in PIAS3 immunoprecipitates (FIG. 2A). Furthermore, PIAS3 was not found to be associated with STAT1 in a number of cell lines treated with interferon-γ.
Protein extracts from M1 cells, untreated (−) or treated with IL6 for 10 min (+), were subjected to immunoprecipitation (IP) with anti-PIAS3c. The blot was probed with anti-STAT. The same blot was then reprobed with anti-PIAS3c. The filter was washed and reprobed with anti-STAT1.

[4] = target: T2, STAT1 in interferon-treated human cells (human, UniProt P42224 2-750, limits assumed, phosphotyrosine at Tyr-701 (IFN-induced)); experiment: co-immunoprecipitation with anti-PIAS3c from HepG2 cells untreated or treated with IL6 or IFN-γ, anti-STAT1 blot
T2 construct: also called p-STAT1; wild type STAT1
T2 sequence (looked up): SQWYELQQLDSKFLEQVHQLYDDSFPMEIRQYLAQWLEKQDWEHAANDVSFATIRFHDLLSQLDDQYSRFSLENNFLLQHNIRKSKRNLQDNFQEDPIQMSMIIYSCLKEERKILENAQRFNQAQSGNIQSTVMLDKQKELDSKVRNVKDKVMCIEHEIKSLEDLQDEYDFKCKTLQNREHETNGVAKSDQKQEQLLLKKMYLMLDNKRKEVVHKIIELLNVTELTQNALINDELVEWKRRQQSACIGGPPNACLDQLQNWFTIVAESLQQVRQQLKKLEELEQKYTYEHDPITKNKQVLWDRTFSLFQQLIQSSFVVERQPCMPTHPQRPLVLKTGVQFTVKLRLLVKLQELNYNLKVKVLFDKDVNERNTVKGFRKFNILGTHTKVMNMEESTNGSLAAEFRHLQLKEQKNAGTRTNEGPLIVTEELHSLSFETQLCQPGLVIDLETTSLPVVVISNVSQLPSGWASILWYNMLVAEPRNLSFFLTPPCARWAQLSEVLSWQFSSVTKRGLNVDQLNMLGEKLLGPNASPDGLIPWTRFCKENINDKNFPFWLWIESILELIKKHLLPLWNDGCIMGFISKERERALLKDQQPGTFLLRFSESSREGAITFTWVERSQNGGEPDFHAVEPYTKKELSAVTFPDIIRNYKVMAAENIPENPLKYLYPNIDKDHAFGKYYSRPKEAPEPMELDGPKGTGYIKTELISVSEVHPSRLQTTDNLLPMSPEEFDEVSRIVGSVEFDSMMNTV

STAT3 in cytokine-treated human cells (CNTF, OM or IL6), sequence (P40763 2-770 limits assumed): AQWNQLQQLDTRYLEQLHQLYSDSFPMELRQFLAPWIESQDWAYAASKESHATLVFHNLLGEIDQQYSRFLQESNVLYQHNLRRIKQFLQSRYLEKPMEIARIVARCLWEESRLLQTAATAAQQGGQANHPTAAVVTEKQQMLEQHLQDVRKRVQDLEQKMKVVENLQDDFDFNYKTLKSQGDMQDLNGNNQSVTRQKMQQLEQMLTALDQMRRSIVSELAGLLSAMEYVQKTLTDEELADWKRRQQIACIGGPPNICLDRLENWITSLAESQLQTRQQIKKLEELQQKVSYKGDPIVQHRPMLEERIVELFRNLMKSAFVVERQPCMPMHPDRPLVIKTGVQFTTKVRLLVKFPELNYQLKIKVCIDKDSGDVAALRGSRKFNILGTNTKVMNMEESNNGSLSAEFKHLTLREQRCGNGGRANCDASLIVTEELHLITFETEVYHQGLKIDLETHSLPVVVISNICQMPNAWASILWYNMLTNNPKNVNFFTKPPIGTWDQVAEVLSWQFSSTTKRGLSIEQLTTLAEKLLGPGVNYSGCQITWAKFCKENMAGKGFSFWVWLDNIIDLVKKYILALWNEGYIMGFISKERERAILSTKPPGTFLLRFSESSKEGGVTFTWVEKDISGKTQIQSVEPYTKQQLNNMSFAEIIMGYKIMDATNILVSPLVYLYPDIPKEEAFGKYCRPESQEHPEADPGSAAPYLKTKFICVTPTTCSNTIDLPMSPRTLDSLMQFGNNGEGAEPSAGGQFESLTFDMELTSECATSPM
STAT2 in IFN-treated human Daudi B cells, sequence (P52630 whole entry): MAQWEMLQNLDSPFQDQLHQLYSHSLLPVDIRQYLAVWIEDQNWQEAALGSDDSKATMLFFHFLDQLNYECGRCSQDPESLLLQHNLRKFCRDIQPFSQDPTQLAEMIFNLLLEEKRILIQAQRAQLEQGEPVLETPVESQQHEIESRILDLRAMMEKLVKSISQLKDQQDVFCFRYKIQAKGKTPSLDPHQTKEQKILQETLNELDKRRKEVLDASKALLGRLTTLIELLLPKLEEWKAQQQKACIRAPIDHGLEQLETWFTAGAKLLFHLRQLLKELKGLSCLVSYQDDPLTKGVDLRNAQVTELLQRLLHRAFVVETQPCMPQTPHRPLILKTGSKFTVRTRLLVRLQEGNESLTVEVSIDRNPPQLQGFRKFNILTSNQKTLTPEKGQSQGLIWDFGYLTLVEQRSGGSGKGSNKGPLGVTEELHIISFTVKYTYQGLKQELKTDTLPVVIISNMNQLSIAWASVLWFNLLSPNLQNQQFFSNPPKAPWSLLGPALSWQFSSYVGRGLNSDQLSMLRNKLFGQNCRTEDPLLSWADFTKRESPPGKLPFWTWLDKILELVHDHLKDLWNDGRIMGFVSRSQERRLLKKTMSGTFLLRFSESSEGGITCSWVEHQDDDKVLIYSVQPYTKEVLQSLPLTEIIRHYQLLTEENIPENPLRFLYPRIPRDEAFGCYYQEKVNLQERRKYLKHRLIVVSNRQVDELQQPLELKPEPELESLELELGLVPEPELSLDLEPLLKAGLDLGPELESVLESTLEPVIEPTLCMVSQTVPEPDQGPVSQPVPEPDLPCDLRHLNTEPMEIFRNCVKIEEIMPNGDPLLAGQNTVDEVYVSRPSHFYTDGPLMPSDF

binding result [1]: no binding
binding result [2]: no binding
B1: human PIAS1 (other)
chain: ADSAELKQMVMSLRVSELQVLLGYAGRNKHGRKHELLTKALHLLKAGCSPAVQMKIKELYRRRFPQKIMTPADLSIPNVHSSPMPATLSPSTIPQLTYDGHPASSPLLPVSLLGPKHKLELPHLTSALHPVHPDIKLQKLPFYDLLDELIKPTSLASDNSQRFRETCFAFALTPQQVQQISSSMDISGTKCDFTVQVQLRFCLSETSCPQEDHFPPNLCVKVNTKPCSLPGYLPPTKNGVEPKRPSRPINITSLVRLSTTVPNTMCSWTAEIGRNYSMAVYLVKQLSSTVLLQRLRAKGIRNPDHSRALIKEKLTADPDSEIATTSLRVSLLCPLGKMRLTIPCRALTCSHLQCFDATLYIQMNEKKPTWVCPVCDKKAPYEHLIIDGLFMEILKYCTDCDEIQFKEDGTWAPMRSKKEVQEVSASYNGVDGCLSSTLEHQVASHHQSSNKNKKVEVIDLTIDSSSDEEEEEPSAKRTCPSLSPTSPLNNKGILSLPHQASPVSRTPSLPAVDTSYINTSLIQDYRHPFHMTPMPYDLQGLDFFPFLSGDNQHYNTSLLAAAAAAVSDDQDLLHSSRFFPYTSSQMFLDQLSAGGSTSLPTTNGSSSGSNSSLVSSNSLRESHSHTVTNRSSTDTASIFGIIPDIISLD
notes: also called hPIAS1

binding result [3]: no binding
B2: murine PIAS3 (other)
chain: MVMSFRVSELQVLLGFAGRNKSGRKHELLAKALHLLKSSCAPSVQMKIKELYRRRFPRKTLGPSDLSLLSLPPGTSPPVHPDVTMKPLPFYEVYGELIRPTTLASTSSQRFEEAHFTFALTPQQLQQILTSREVLPGAKCDYTIQVQLRFCLCETSCPQEDYFPPNLFVKVNGKLCPLPGYLPPTKNGAEPRGPAVRSTSHPWLDSQPLSPTPSLLIGHLSLDGITPCPCLVRQLTAGTLLQKLRAKGIRNPDHSRALIKEKLTADPDSEVATTSLPGVTHVPARKMRLTVPCRALTCAHLQSFDAALYLQMNEKKPTWTCPVCDKKAPYESLIIDGLFMEILNSCSDDDEIQFMEDGSWCPMKPKKEASEVCPPPGYGLDGLQYSAVQEGIQPESKKRVEVIDLTIESSSDEEDLPPTKKHCSPTSAAIPALPGSKGALTSGHQPSSVLRSPAMGTLGSDFLSSLPVHEYPPAFPLGADIQGLDLFSFLQTESQQYGPSVIISLDEQDTLGHFFQYRGTPSHFLGPLAPTLGSCHGSSTPAPPPGRVSSIVAPGSSLREGHGGPLPSGPSLTGCRSDVISLD
notes: Endogenous protein immunoprecipitated with anti-PIAS3c from M1 cell extracts; also called mPIAS3; mouse PIAS3

binding result [4]: no binding
B3: human PIAS3 (other)
chain: MVMSFRVSELQVLLGFAGRNKSGRKHELLAKALHLLKSSCAPSVQMKIKELYRRRFPRKTLGPSDLSLLSLPPGTSPPVHPDVTMKPLPFYEVYGELIRPTTLASTSSQRFEEAHFTFALTPQQLQQILTSREVLPGAKCDYTIQVQLRFCLCETSCPQEDYFPPNLFVKVNGKLCPLPGYLPPTKNGAEPRGPAVRSTSHPWLDSQPLSPTPSLLIGMLSLDGITPCPCLVRQLTAGTLLQKLRAKGIRNPDHSRALIKEKLTADPDSEVATTSLPGVTHVPARKMRLTVPCRALTCAHLQSFDAALYLQMNEKKPTWTCPVCDKKAPYESLIIDGLFMEILNSCSDCDEIQFMEDGSWCPMKPKKEASEVCPPPGYGLDGLQYSAVQEGIQPESKKRVEVIDLTIESSSDEEDLPPTKKQCSVTSAAIPALLGSKGVLTSGHQPSSVLRSPAMGTLGSDFLSSLPVHEYPPAFPLGADIQGLDLFSFLQTESQQYGPSVIISLDEQDTLGHFFQYRGTPSHFLGPLAPTLGSCHGSSTPAPPPGRVSSIVAPGSSLREGHGGPLPSGPSLTGCRSDVISLD
notes: Endogenous protein immunoprecipitated with anti-PIAS3c from human HepG2 cells; also called hPIAS3
